In assay [1] the target is human chitinase 3-like-1 (hChi3l1) with C-terminal Avitag and His tag (Homo sapiens, UniProt P36222). In words: BLI.
In assay [2] the target is mouse chitinase 3-like-1 (mChi3l1) with C-terminal Avitag and His tag (Mus musculus, UniProt Q61362). In words: BLI. For orientation: BLI is a label-free optical method that tracks binding on a fibre tip over time.

From publication PMC9847341 (Antibody Therapeutics, 2022) come the findings set out here.

As a reminder, the Kd is the free concentration of one partner at which half of the binding sites on the other are occupied at equilibrium, for simple one-to-one binding. Low readings indicate a tighter complex, high ones a looser complex.

Chain of mouse chitinase 3-like-1 (mChi3l1) with C-terminal Avitag and His tag (Q61362 30-389): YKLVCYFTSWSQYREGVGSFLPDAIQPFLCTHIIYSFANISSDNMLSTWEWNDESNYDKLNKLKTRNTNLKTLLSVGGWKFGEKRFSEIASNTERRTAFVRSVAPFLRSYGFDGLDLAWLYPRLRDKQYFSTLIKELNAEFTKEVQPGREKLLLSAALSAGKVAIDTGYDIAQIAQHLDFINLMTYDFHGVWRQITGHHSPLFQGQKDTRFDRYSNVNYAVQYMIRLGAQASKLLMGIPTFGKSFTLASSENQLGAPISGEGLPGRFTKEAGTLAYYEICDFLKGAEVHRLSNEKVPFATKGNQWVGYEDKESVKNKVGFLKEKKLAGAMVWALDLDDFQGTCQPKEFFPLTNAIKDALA
Chain of human chitinase 3-like-1 (hChi3l1) with C-terminal Avitag and His tag (P36222 22-383): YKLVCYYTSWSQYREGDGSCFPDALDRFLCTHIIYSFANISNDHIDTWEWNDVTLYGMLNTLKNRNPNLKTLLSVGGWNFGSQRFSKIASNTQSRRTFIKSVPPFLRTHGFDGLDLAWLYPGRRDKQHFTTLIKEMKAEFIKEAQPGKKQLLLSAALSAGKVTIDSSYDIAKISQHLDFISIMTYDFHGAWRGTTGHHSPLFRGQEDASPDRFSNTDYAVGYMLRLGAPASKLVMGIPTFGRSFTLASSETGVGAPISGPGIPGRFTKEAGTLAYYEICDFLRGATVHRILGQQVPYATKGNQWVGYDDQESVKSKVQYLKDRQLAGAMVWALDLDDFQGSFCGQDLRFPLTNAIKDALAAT

B1: humanized C59, second version (hC59): hC59-1 with the S67F reverse mutation in the kappa chain FR3 (antibody, V domains shown)
VH: EVQLVESGGGLVQPGGSLRLSCAASGFTISSDYYMCWVRQAPGKGLEWIGCIYIGSGTDTYYASWAKGRFTISRHNSKNTLYLQMNSLRAEDTAVYYCARDKGWSNAWGFYFQLWGQGTLVTVSS
VL: DIQMTQSPSSLSASVGDRVTITCQASQSIGKYLNWYQQKPGKAPKLLIYSSSSLASGVPSRFSGSGFGTDFTLTISSLQPEDFATYYCQQGYSYVDLENGFGGGTKVEI
For B1, the Kd was determined as 9 nM in assay [1] and 7 nM in assay [2].
